# In PMC3511393, “Identification and Characterisation of the RalA-ERp57 Interaction: Evidence for GDI Activity of ERp57” (PLoS ONE, 2012):
# T1: 6xHis-ERp57 (human, UniProt P30101 24-505)
# T1 construct: ERp57, human cDNA without the region encoding the N-terminal signal peptide (amino acids 1-23); also called wt ERp57; wild-type 6xHis-ERp57; source: E. coli, purified (Ni-NTA); not shown: 6xHis, N-terminal, kept
# T1 sequence (looked up): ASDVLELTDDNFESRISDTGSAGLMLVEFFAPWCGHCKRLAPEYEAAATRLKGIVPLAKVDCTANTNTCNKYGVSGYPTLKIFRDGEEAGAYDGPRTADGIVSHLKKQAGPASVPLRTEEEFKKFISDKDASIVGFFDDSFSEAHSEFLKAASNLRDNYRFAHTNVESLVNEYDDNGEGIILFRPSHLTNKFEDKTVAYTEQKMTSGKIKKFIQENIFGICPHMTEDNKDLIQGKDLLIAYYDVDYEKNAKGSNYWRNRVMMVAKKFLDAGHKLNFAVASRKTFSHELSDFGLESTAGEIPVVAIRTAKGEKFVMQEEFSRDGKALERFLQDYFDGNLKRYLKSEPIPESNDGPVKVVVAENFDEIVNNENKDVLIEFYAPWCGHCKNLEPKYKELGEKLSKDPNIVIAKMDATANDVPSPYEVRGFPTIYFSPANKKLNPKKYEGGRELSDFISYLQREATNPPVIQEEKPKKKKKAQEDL
# Molecular target: T1, 6xHis-ERp57
# Experiment: pull-down; GST-RalA loaded with GDP as bait; purified 6xHis-ERp57 or mutants; Western blot with anti-6xHis antibody; with or without 1 mM DTT
# Conditions: both partners purified
binder,measurement,value
"GST-RalA (natural protein, simian, UniProt P63320 1-206, looked up, RalA, simian cDNA (pGEX-2T-RalA from Yoshito Kaziro); loaded with GDP or GTP immediately before use; Nucleotide state (GDP or GTP) is told by the assay; also called RalA-GDP; RalA-GTP; source: when necessary eluted with reduced GSH and dialysed; not shown: GST, N-terminal, kept) MAANKPKGQNSLALHKVIMVGSGGVGKSALTLQFMYDEFVEDYEPTKADSYRKKVVLDGEEVQIDILDTAGQEDYAAIRDNYFRSGEGFLCVFSITEMESFAATADFREQILRVKEDENVPFLLVGNKSDLEDKRQVSVEEAKNRADQWNVNYVETSAKTRANVDKVFFDLMREIRARKMEDSKEKNGKKKRKSLAKRIRERCCIL",binding result,binds
